Data: the DeepSol protein solubility set

Experiment: soluble on expression in E. coli; label from the status in PepcDB or PDB records

Sequence | soluble on expression in E. coli
STSPTATKYDVFLSFRGVDTRRNFISFLYKEFVRRKIRTFKDDKELENGRRISPELKRAIEESKFAVVVVSVNYAASPWCLDELVKIMDFENKGSITVMPIFYGVDPCHLRRQIGDVAEQFKKHEAREEDHEKVASWRRALTSLASISGDCSSKCEDEAKLVDEIADKISKNLMTVTTISNGKNLVGIDTHMKALNKKLDLNSNKSLRVVGIWARGYNGRSALAKYVYQDICHHFDSHCFLGSVKRISQGRHLSHLHEEFLIRIQGSKHNLKDQKVLLVADDVYKLEQLDALAEDFNGFGPGSVVIITTQDKHLFVSAGIKLVYEVELLKFQKVCELFRQFAFKKRDISAAVKLVYYRATNWLGCLSGRSG | soluble
MIIMLSEYLEEFKEYLERFKNIDINFSDVLKMSKKFIIWRLKQIFGDSSTIFTNISSEITIFDKIFQMIDYDIDGEVEKRLPKDESRFMIGVRREKEIEIKKEIITNLLDFLLIILLSHTPYFNAFVRKYAEIKKIKVIKKLPNKISVWEFIKIASRSRINDLHLERLDLENGFVDITKIKEIFAKEIIRVELMKLGENIKKRKLPDDSVVKELLNEISDYLKDKVKYEQISGIKALNYKGNIPLEWHPPCIRGILNDILSGGSPSHYARRSFVVYWFCAKFNPNLRPLDKNGNLVNVSATDIASEEEIERFIDELIEMLFKNVEDFDEKKTRYYIMHNIGYKVGHGRLTHCEYCKNWQDDGGKGLSYYCKPDELCKKKFIIHPLDYLCYNINKHLKKERFKKIKKEDKNGDNKLEHHHHHH | soluble
MGSDKIHHHHHHMSNQHSWALSMNQIENCSCSHGCGCQFGGFPTSKDGGCEAILGFEILKGHFNDLDLSGLKMVFAAAWPSAMHEGNGKGALFIDNSANEEQVGALATIMSGQAGGMPVEVLGTLFSEFDGPIMADIKLNRQDYTSTVTIEGIIEVEQEPHINPVTGEINEVHISFPKGGFMWNDGFAGKTKLMKINHGNMAFSYSDTFAANAVVNWPNA | not soluble
MAYFFKNLVFEGGGVKGIAYIGALEVLQEEKIFPKIKRVAGTSAGAIMAVLIGLGYTPSEIKEIMWCLNFKNFMDDSWGIIQDTKRLIEKFGWYKGDFFRNWLGDLIKAKTGNSESTFADLAAMKGENKFLDISLIGTNLSTGFSEIFSAEHTPRICIADAARISMSIPLFFAAKRNFRNDVYVDGGMLNNYPVKVFDRTKYVTKNFTRTGYYEPINKKLEKRPRKIADYVYNKETLGFRLDSKEKIAFFRDNAEPPHRDIDSFFDYTVSLFGTLLSAQDDVHLHSDDWQRTIYIDTLGVKTTDFAISDAQKKALLESGRSYTQSYLEWYNNSEEKVNK | not soluble
MSLKARPTIAEVARRAGVSPATVSRVLNGTARVSPEKVRAVLQAVEELGYAPSPLAQGLATGRSYAVGILLSDFASPFFGPILEALTLELEATPYRPIAVPGHWSLVRELEALEFLKAHRVEALVLLGTALDGEALGELGIPVLAFGQRVEGPKAWSLCLDNQQAAYEATRYLIDRGHTRIVHISSHRGGMDVRDRLLGYRKAMREAGLEARVVYGDLEEEGGYRAAAEAFRRYPDTTAIFAANDQTAFGARLYLYEQGLRVPEDVSLVGFDDIALSAYQIPPLTTVRQPIQDIGIALGRALRAVLAGEVPTLPRLELRLVERASVREVREGHHHHHH | soluble
MAKLYFYYSAMNAGKTTTLLQSAHNYRERGMRTLILTPKLDHRAGSGVVASRIGLRADGRIFERDTELQQLVERDIHNDGALHCVLVDEAQFLSRAQVWQLSEVVDRLRIPVLCYGLRTDFRGELFEGSQFLLAWADELEEIKTICHSGSKATMTVRVDAHGHAVQDGPQVEIGGNERYVSVSRAEFKKIMRGEGRIDPLQIALPLPVALEHHHHHH | not soluble
EALYVAGYLALYSKDEGELNITPEIVRSALPPTSKIPINIDHRKDCVVGEVIAIIEDIRGPFFLGIVRCPQLHAVLFEAAHSNFFGNRDSVLSPLERALYLVTNYLPSVSLSSKRLSPNEIPDGNFFTHVALCVVGRRVGTVVNYDCTPESSIEPFRVLSMESKARLLSLVKDYAGLNKVWKVSEDKLAKVLLSTAVNNMLLRDRWDVVAKRRREAGIMGH | soluble
MIYAAEEVRARFARRGLSFDPTVEEIVRGILEAVREEGDEALDRFSRDLDGYPVEEVPKRAWREAYEDLDEDLRDALETARERIEAFYREEARGGFLRAEGGGVLAQLVRPLERVGVYVPGGSAPLLSTLLMTVVPAKVAGVREVIVASPPKVHPGVLAAAWVAGADRLFAMGGAQAIAALAYGTGRVPRVDKIVGPGNRYVVAAKRLVYGTVGIDGLAGPTETMIIADGSASPRLLAADLLAQAEHGPDSEPWLLSPDRALLERVEAELSWQLQDLPRAEVARQALEKGGLVLTKDLEEAFALANLYAPEHLSLALSDPLPWLEKVQNAGGVFLGEGSPEALGDYIAGPSHVMPTSGTARFQGGLAVRDFLKVIPVVGLSEGAARELAKKGALLARAEGLEGHARSLDLRR | soluble
MSLKILIGEFAVGTDIEKSLIPEGAAMLKTLAESFVRVGHEVCYPSAGTEIGSGTALKSTADSFVQVIEREAKNCDAGLLIAPDGMLPELNRILAENTANLGCSPEAAARCADKLRCTEILKTAGINAPEIVREAEEGKKYVIKPRFGCGAEATYLVSGFENTGEFIASEYIEGEHLSVSLIAGNKPLPLTVNRQFIEFNEKKDGINPENIEVSGIKYNGSLTPYETPRRGELYETAVSAVKYLGCFGYVGVDIVLSEVPYVVDVNPRPTASIFGISRVMREEIGELLLTNRFGTLPDSVRVEGEYHFSKDMLGELFGKNEGHHHHHH | soluble
MQTEGAQEMVLQDAVAGIYKKLVVDASGTQLLGAILVGDNSDYDALLHCYLNKTVLPDHAANLLFDTGMLDGEMPDSAIICSCHNVTKGDLVAEIQAGTTNLTDLKANTKAGTGCGGCSNMVKSVLDTQLAAMGVEVNNHLCEHFELSRQEMFHICQVEQIKDFDTLIALHGKGHGCDICKPTAASVFASLWNEHIMEPQHQSLQDSNDAFMANLQKDGSYSIVPRVPGGEITPDKLIVLGEVAQQYDLYTKITGGQRVDLFGAQLEQLPEIWQTLIDAGFETGHAYGKSVRTVKSCVGSTWCRYGVDDSVGLAIELENRYKGLRAPHKLKFAVSGCTRECAEAQSKDIGVIATENGWNLYVCGNGGMRPRHADLFASDLSKSELITMIDRVLMFYVSTADRLQRTSVWMENMEGGLDYLKQVILDDSLNLCDSLDEQMARVVDTYQCEWKSTLDNPQKLQRFRPFLNSTSGSKVLPYQRVRGQRIPVKQEV | not soluble
MGSDKIHHHHHHMKFLPLIAMCLFLTGCVGDRSDLELFVTTTKAQHVAHIPPLKEPPRFEHFAYQAELMRSPFVPPSRELTEEVVDTSKDCLQPDLKRRKGRLETYPLDNLKMRGTLSEADTTWALVETNDGSVYRMGTGEYLGLFNGRISKVTSQNVEVVELIPDGSGCWSERTSNLELSGE | not soluble
MSISISYSTTYSGWTVADYLADWSAYFGDVNHRPGQVVDGSNTGGFNPGPFDGSQYALKSTASDAAFIAGGDLHYTLFSNPSHTLWGKLDSIALGDTLTGGASSGGYALDSQEVSFSNLGLDSPIAQGRDGTVHKVVYGLMSGDSSALQGQIDALLKAVDPSLSINSTFDQLAAAGVAHATPAA | soluble
AIATGVYADAVLVSVTVGDTVTLHTAGVKNLQPADVKWYFNDIRIAQLDGDLRFNCTDIQCNDRTEIFIDRLRLDRKTGALTIVNITNTHSGVYQLVVIGGGGTIFNVTVHDDPATHYNQVKKNQGESVTFNPGVRRDLIVVLKCLLNNTLIAEISVNQSQICADVQCKERFTDRLKLDNESASLTITNTNITDSGNYTSVILISSDRRFSITREKRFSLTVTSLSSSQPSGGAIAGIVVMLLLLL | soluble
PLLIGGLYPKNLEDRILIKLDQAPPYLLDGLVAVEDRDFYHHFGVSPKSIARAIWVNTSQGQMRQGGSTLTQQLVKNFYLTNERSLSRKLTEAMMAVLLEIHYSKQEILEAYLNEVFVGQDGQRAVHGFGLASQYFFSQPLSELKIHQVAMLVGLVKGPSFY | not soluble
MFFSNSLHANAAPQHFERIAKILQAKRRAGDFSTCDVKIQLKTGFDMVHSVVICAHSDVFSETFDNQRAPYQPFNMTDFDPDSVRRVFDWMYSGEIDIPETTIADVLAVASYLRVTMLQRQIEQKILNHNGSPIMALNIASARAFSVMDHTMNDLVHGFTEKMTGLGIDEVAKLTANSMIAVMAAVLPMKKKVPLVNMFISWIVCKQPERETINTIIQSLVISDITYDTLYAIRYSLKQYLTNSEIASKSQLTISPSGTIEIKIVPKKESMVSEKSSSLHSVVELPPNQYYRTRSEISAIDKMPDPFVRNLPRTQSASSMIARPRSSGGFPQYFTRSEVEDLQQMTDPFSKSERGMTPTRGPPMGFSSVQCTVKYPGWSKDVMETNKEMYKQCKMNGRYILSEAQTESNAPVFLRPAVGGKVSSSRGALSNLSNSEQNKKYGRGVTQSFSGHSLNDNDPMPKEHDPKVQPSVIISCLSLPTTSPVSVVKPKMTGVKKTDSEIMEINALPSSFNSNSFYTAKTSNTSGHSNDQSAGKSEKSQRSQKSEKSQKLKKPIPQSQYLYPN | not soluble
MATPTEKQILTLAQWFSPAYPVGAFAYSHGLEWSVEAGDVVDARTAQAWITDVLQHGAGWNDCLFIGSAYRAASLQELKNINDTALAFSASSERMMETRLQGEAFCGITASVWPVDLAGLCYPVAVGRAANLVGLPLTLSGQFYLHAFMANLVTAATRLVPLGQTEGQQIIRDLTPLCQAIADTALCANLSHLTSTAFLGDIAAMKHETQYSRMFRTLEHHHHHH | not soluble
TPTRFLVAFDGSATSRKTVEMVSRSPLLQGMQAHVLTAGSDAGEARQALQWAREQLAQGGFDAITHHAAERPADALAAYAGQHGIDMLVMGAYGHSRIRQLVLGSTTTEILSRVSLAVLILR | not soluble
MGSDKIHHHHHHMAINYGVFTISLDFEMYWGVRDKRAISDYAVNLEGIRPAIAGMLDIFTEFNVHATWATVGFLFFRNSEHLSANLPKAIPTYTDINLSPYEYIKNKKLDDRYHFAPDLIQKIISTSGQEVASHTFSHYYCLEDGQTIDQFESDLALAVDTASRLGYKLSSLVFPRNQWNSEYLSVLNKYNIKSFRGNELNWMNSASGQEGQSYFKRAARLLDSYINISGFNTHDISTCLENKPFNFPSSRFLRPYNKKLSFFDCLKLRRIKKAMTHAAKNNELFHLWWHPHNFGAETSKNLDMLREILDHYQYLNKNFGMRSLNMEELSFLEKAYD | not soluble
MSLENLARFLSTTLKQLRQQRGWSLSRLAEATGVSKAMLGQIERNESSPTVATLWKIATGLNVPFSTFISPPQSATPSVYDPQQQAMVITSLFPYDPQLCFEHFSIQMASGAISESTPHEKGVIEHVVVIDGQLDLCVDGEWQTLNCGEGVRFAADVTHIYRNGGEQTVHFHSLIHYPRSEGGSHHHHHH | soluble
MGSDKIHHHHHHMVVNMFEDIDTFEEAFNKLLREVLEFDLQNPFKDAKKVLCIEPHPDDCVIGMGGTIKKLSDMGVEVIYVCMTDGYMGTTDESLSGHELAAIRRKEEEESARLLGVKKIYWLNYRDTELPYSREVRKDLTKILRKEQPDGVFAPDPWLPYESHPDHRRTGFLAIESVAFSQLPNFSNTDLDIGLNPYNSGSFIALYYTHKPNYIVDITDLMELKLKAIRVHRSQFPDDIWEKWEPFLRTIAMFYGEKIGVRYGEGFRIMPGLFYHITPFTDLI | not soluble
MAHHHHHHMRCVRRSVLGSRGLKRPMFNYTRIFSMGITQHTFTGALLEDLRAGGCCGDQTEDNPGSSLRHGELDHFESPEAEAAHVEKVNTVVDDLFSRMPLPEDPMGAALAPTKEEMEEKAEWDVLKEVVRERYQRKIALKEAERVRIDKAMQHYRVDKDIEGGVSGVTGATGDSEKIRKKIERMKQEIVELERRLEAANHDDNL | not soluble
